According to article PMC3479198 (Nucleic Acids Research, 2012):

Target: the molecule itself
Assay: electron microscopy

B1: Helicobacter pylori DnaA protein (natural protein, H. pylori, UniProt O26057 1-457, looked up)
chain: MDTNNNIEKEILALVKQNPKVSLIEYENYFSQLKYNPNASKSDIAFFYAPNQVLCTTITAKYGALLKEILSQNKVGMHLAHSVDVRIEVAPKIQINAQSNINYKAIKTSVKDSYTFENFVVGSCNNTVYEIAKKVAQSDTPPYNPVLFYGGTGLGKTHILNAIGNHALEKHKKVVLVTSEDFLTDFLKHLDNKTMDSFKAKYRHCDFFLLDDAQFLQGKPKLEEEFFHTFNELHANSKQIVLISDRSPKNIAGLEDRLKSRFEWGITAKVMPPDLETKLSIVKQKCQLNQITLPEEVMEYIAQHISDNIRQMEGAIIKISVNANLMNASIDLNLAKTVLEDLQKDHAEGSSLENILLAVAQSLNLKSSEIKVSSRQKNVALARKLVVYFARLYTPNPTLSLAQFLDLKDHSSISKMYSGVKKMLEEEKSPFVLSLREEIKNRLNELNDKKTAFNSSE
  binding result: binds
